From the supplement of paper PMC9170038

Test system: MS2 coat protein
Assay: apparent KD of MS2 coat protein; higher = weaker reporter binding
Settings: Eterna round: R107
Summary of the method: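 Illumina sequencing clusters served as templates for on-chip transcription of the designed RNA switches. SNAP-549-labelled MS2 coat protein was then titrated in twofold steps from 0.7 or 1.5 nM to 3 µM, allowing 0.8–1.5 h per step at first and 10–20 min per step later. The buffer held 100 mM Tris-HCl pH 7.5, 80 mM KCl and 4 mM MgCl2, without or with constant ligand. Apparent KD is the median per design of normalised cluster binding-curve fits.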

[1] = input ligand: theophylline 20 uM
[2] = input ligand: theophylline 2 mM
[3] = input ligand: tryptophan 2.4 mM

Row | Sequence | apparent KD of MS2 coat protein (input ligand: arginine 13.2 mM) [nM] | apparent KD of MS2 coat protein (input ligand: none) [nM] | apparent KD of MS2 coat protein [1] [nM] | apparent KD of MS2 coat protein [2] [nM] | apparent KD of MS2 coat protein [3] [nM]
1 | ACGCCCAGGUAGGCUUAAUGGGAAAUGGAAGGAGCGCUGAUGCAAGCAGGUAGGUCGCCAACGAACAUGAGGAUCACCCAUGUAA [Same State - Arginine A (Freestyle 2)] | 16.3 | 22.3 | 28.2 | 23.8 | 20.7
2 | AUCCACAGCCGAAGGAGCGCUAGAAGAUGACAUGAGGAUCACCCAUGUGUGUGAUGUGGCUAGCAGGUAGGUCGCGGAGUGGAUU [Exclusion - Arginine B (Freestyle 12)] | 31.6 | 24.3 | 35.5 | 26.2 | 24.7
3 | GCUAGUGGCAGAAGGAGCGACAUUUUAAGUGGUCGAUACAUGAGGAUCACCCAUGUACUAUGUCAGGUAGGUCGCUGCCACUAGC [EAB NP+V+V2 #3 +-Same Structure] | 39.1 | 34.8 | 38.8 | 42.9 | 34
4 | ACAUGAGGAUCACCCAUGUGGCGACUUGAUACCAGACCCGCACUAGUCCCUUGGCAGCAACUACGUGAGGGUCACCCAUGUGAAG [vndullin] | 35.5 | 20 | 29.3 | 28.9 | 18.3
5 | UGUAUGUGAUCUGAUACCAGUCCAACUGGUAAAACAAGAGGAUCACCCUUGUAAAAUUGGGACCCUUGGCAGCAGAUCGCAUACU | 251 | 472 | 409 | 29.8 | 733
6 | GCUAGUGGCAGAAGGAGCGAGGCUACAUACGGGUACAUGAGGAUCACCCAUGUGGUGUGUACUCAGGUAGGUCGCUGCCACUAGC [SSAB NP+V+V2 #13 Same Structure] | 193 | 921 | 754 | 977 | 467
7 | GGCCUUGCGGGCGCCCGCAAGGCCGCGGAUACCAGCGAGGUCCAUCGCCCUUGGCAGCCGAACAUGAGGAUCACCCAUGUCGGUU [Same State - Theophylline A Attempt #6 (HarryS)] | 9.84 |  | 13.7 |  | 11.3
8 | AUGUUUGUGUGAGAUACCAGUGAGGCCACAUGAGGAUCACCCAUGUCCCUCACUCCGGCCCACCCUUGGCAGCUCUUAUAGAAAA [Exclusion Theophylline B GF 26] | 8.81 |  | 15.4 |  | 9.79
9 | GACUAACAUGAGGAUCACCCAUGUGAAGAUACCAGUAAUUUCACCUACCCUUGGCAGCUUUUUUUGAACGGCCUGAAUGCCUUGU [theeternabot_sameState_MS2_Theo_A_14] | 12.2 |  | 17.5 |  | 11.9
10 | UGUAACAUGAGGAUCACCCAUGUAAGUGAUACCAGAUAAGUAGUAGUCCCUUGGCAGCAUAUUGGGAAAGUGUAUAGUCUAUACG [Same State - Theophylline A (Freestyle 5)] | 50 |  | 75.3 |  | 46.4
11 | AACGUAUACAGAAGGAGCGUGAAUUAUAUUACUCAUUGUUAUACAUGAGGAUCACCCAUGUCACAGGUAGGUCGCUGUAUUCGUA [JR_ExcArginiB_Sub018] | 76.9 | 131 | 126 | 162 | 110
12 | GGGCCCGGGCCCGAUACCAGCAGAGAAAACAUAUAUCCUAACAUGAGGAUCACCCAUGUAUGCCCUUGGCAGCGGGCCCGGGCCC [#15 Exclusion-TheophyllineB] | 32.2 | 34.5 | 33.9 | 33.2 | 28.2
13 | AGCGACAUGAGGAUCACCCAUGUACAUUCCCGAGGACCGGUACGGCCGCCACUCGAUGGAAGUGGUAGCAGCUUGGAUGGGCCUA [theeternabot_sameState_MS2_Trp_A_23] | 14.5 |  | 20 | 17.8 | 
14 | UGUAUGUGAUCUGAUACCAGCGUUGAUAACCUGAGGAUCACCCUGGUAAGGCGAAAGCCGCGCCCUUGGCAGCAGAUCGCAUACU | 169 | 237 | 83.9 | 23.3 | 260
